Patent US20130149236A1 (MacroGenics, published 2013)

Legend:
soluble B7H3-4Ig = target: T1, soluble B7H3-4Ig (human, UniProt Q5ZPR3 29-466); assay: Specificity
T1 construct: Soluble or immobilized 4Ig form; also called 4Ig-B7-H3
T1 sequence: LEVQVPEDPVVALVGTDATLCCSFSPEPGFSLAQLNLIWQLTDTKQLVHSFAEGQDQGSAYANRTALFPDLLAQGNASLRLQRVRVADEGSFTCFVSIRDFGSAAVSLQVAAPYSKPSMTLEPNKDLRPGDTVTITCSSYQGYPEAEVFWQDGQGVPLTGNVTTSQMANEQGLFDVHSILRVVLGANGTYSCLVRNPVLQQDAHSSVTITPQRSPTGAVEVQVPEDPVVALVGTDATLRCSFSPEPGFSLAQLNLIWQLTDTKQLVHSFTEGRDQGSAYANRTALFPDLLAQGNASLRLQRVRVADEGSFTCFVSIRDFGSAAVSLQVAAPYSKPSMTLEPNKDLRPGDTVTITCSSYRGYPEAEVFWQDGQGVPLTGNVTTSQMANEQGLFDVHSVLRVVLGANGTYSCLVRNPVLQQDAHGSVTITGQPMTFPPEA

soluble B7H3-2Ig = target: T2, soluble B7H3-2Ig (human, UniProt Q5ZPR3 29-466); assay: Specificity
T2 construct: Soluble or immobilized 2Ig form; also called 2Ig-B7-H3; B7-H3 (2Ig form)
T2 sequence: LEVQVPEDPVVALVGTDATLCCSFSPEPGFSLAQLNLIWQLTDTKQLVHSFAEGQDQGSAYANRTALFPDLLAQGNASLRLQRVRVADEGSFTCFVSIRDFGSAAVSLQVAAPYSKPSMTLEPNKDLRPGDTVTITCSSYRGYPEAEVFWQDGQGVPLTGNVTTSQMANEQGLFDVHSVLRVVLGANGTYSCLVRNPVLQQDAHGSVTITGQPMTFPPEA

B1: BRCA84D (antibody, IgG1, V domains shown)
VH: DVQLVESGGGLVQPGGSRKLSCAASGFTFSSFGMHWVRQAPEKGLEWVAYISSDSSAIYYADTVKGRFTISRDNPKNTLFLQMTSLRSEDTAMYYCGRGRENIYYGSRLDYWGQGTTLTVSS
VL: DIAMTQSQKFMSTSVGDRVSVTCKASQNVDTNVAWYQQKPGQSPKALIYSASYRYSGVPDRFTGSGSGTDFTLTINNVQSEDLAEYFCQQYNNYPFTFGSGTKLEIK
notes: murine mAb, IgG1/k; fluorescein-labeled in the FACS MFI columns
binding result (soluble B7H3-4Ig): binds | binding result (soluble B7H3-2Ig): binds

B2: PRCA157 (antibody, IgG1, V domains shown)
VH: EVQQVESGGDLVKPGGSLKLSCAASGFTFSSYGMSWVRQTPDKRLEWVATINSGGSNTYYPDSLKGRFTISRDNAKNTLYLQMRSLKSEDTAMYYCARHDGGAMDYWGQGTSVTVSS
VL: DIQMTQSPASLSVSVGETVTITCRASESIYSYLAWYQQKQGKSPQLLVYNTKTLPEGVPSRFSGSGSGTQFSLKINSLQPEDFGRYYCQHHYGTPPWTFGGGTNLEIK
notes: murine mAb, IgG1/k
binding result (soluble B7H3-4Ig): binds | binding result (soluble B7H3-2Ig): binds
